Laboratory results reported in article PMC6411929, “H-NS uses an autoinhibitory conformational switch for environment-controlled gene silencing” (Nucleic Acids Research, 2018).

Assays:
[1] = system: H-NS C-terminal region 84-137; test: MST; conditions: MST: 50 mM Tris-HCl, 50 mM NaCl, 2 mM MgCl2, 0.005% Tween-20, pH not stated; anisotropy: 20 mM HEPES pH 7.5, 50 mM NaCl, 2 mM MgCl2, 25 or 37 C, 20 nM DNA
[2] = system: H-NS full length (H-NSFL); test: MST; conditions: room temperature (25 C), 50 mM NaCl, 2 mM Mg2+, MST: 50 mM Tris-HCl, 2 mM MgCl2, 0.005% Tween-20, pH not stated, anisotropy: 20 mM HEPES pH 7.5, 50 mM NaCl, 2 mM MgCl2, 25 or 37 C, 20 nM DNA
[3] = system: H-NS full length (H-NSFL); test: fluorescence anisotropy; conditions: 25 C, 50 mM NaCl, 2 mM Mg2+, MST: 50 mM Tris-HCl, 2 mM MgCl2, 0.005% Tween-20, pH not stated, anisotropy: 20 mM HEPES pH 7.5, 50 mM NaCl, 2 mM MgCl2, 25 or 37 C, 20 nM DNA
[4] = molecular target: H-NSΔs2 with an N-terminal mCherry fusion (mChH-NSΔs2) (Salmonella typhimurium) (UniProt P0A1S2); test: dynamic light scattering; hydrodynamic radius against temperature, 5 to 60°C; protein at 125 to 500 μM; 150, 250 or 500 mM NaCl; pH 6, 7 or 8 (100 mM MES, MOPS or HEPES)
[5] = molecular target: H-NS C-terminus (84–137) (Salmonella typhimurium) (UniProt P0A1S2); test: MST; 20 nM NT-647-labelled H-NS C-terminus, serial dilutions of the unlabelled partner; 50 mM Tris-HCl, 50 mM NaCl, 2 mM MgCl2, 0.005% Tween-20; 30 min incubation; single-binding-site fit; also repeated at 100, 250, 500 and 1000 mM NaCl
[6] = molecular target: the molecule itself; test: SAXS; H-NS 2-57,C21S in solution at 1-4 mg/ml, 10 to 42°C and a range of salt and buffer conditions (150 mM NaCl, 1 mM EDTA, 20 mM Tris pH 7.5 in Figure 2B); patterns compared with parallel and antiparallel site1 dimer models

**Q.** How did the Kd [1] turn out when 13 bp AT-rich DNA was run?
**A.** 14.5 µM

**Q.** “101 bp DNA with four consensus H-NS motifs” was tested. Which Kd [2] did it give?
**A.** 7.4 µM

**Q.** What about the Kd [3] of the same molecule?
**A.** 10.2 µM

**Q.** Which stoichiometry N [4] does the source give for “H-NSΔs2 with an N-terminal mCherry fusion (mChH-NSΔs2) (from UniProt P0A1S2 1-137) (natural protein)” here?
**A.** 2

**Q.** How did the Kd [5] turn out when “H-NS N-terminus (2–57), unlabelled, pET-M construct with N-terminal His6-tag (from UniProt P0A1S2 2-57) (domain or fragment)” was run?
**A.** 4.1 µM

B1: Salmonella typhimurium H-NS_(2–57,C21S) (domain or fragment)
chain: SEALKILNNIRTLRAQARESTLETLEEMLEKLEVVVNERREEESAAAAEVEERTRK
notes: H-NS, Salmonella typhimurium, residues 2-57 (site1) with C21S
**Q.** Which “stoichiometry N” value [6] does the source give for B1 here?
**A.** 2
